Measurements reported in IntAct's records for PubMed 29467281.

B1: Unconventional myosin-VI (Homo sapiens), Q9UM54-1 (parent)
chain: MEDGKPVWAPHPTDGFQMGNIVDIGPDSLTIEPLNQKGKTFLALINQVFPAEEDSKKDVEDNCSLMYLNEATLLHNIKVRYSKDRIYTYVANILIAVNPYFDIPKIYSSEAIKSYQGKSLGTRPPHVFAIADKAFRDMKVLKMSQSIIVSGESGAGKTENTKFVLRYLTESYGTGQDIDDRIVEANPLLEAFGNAKTVRNNNSSRFGKFVEIHFNEKSSVVGGFVSHYLLEKSRICVQGKEERNYHIFYRLCAGASEDIREKLHLSSPDNFRYLNRGCTRYFANKETDKQILQNRKSPEYLKAGSMKDPLLDDHGDFIRMCTAMKKIGLDDEEKLDLFRVVAGVLHLGNIDFEEAGSTSGGCNLKNKSAQSLEYCAELLGLDQDDLRVSLTTRVMLTTAGGTKGTVIKVPLKVEQANNARDALAKTVYSHLFDHVVNRVNQCFPFETSSYFIGVLDIAGFEYFEHNSFEQFCINYCNEKLQQFFNERILKEEQELYQKEGLGVNEVHYVDNQDCIDLIEAKLVGILDILDEENRLPQPSDQHFTSAVHQKHKDHFRLTIPRKSKLAVHRNIRDDEGFIIRHFAGAVCYETTQFVEKNNDALHMSLESLICESRDKFIRELFESSTNNNKDTKQKAGKLSFISVGNKFKTQLNLLLDKLRSTGASFIRCIKPNLKMTSHHFEGAQILSQLQCSGMVSVLDLMQGGYPSRASFHELYNMYKKYMPDKLARLDPRLFCKALFKALGLNENDYKFGLTKVFFRPGKFAEFDQIMKSDPDHLAELVKRVNHWLTCSRWKKVQWCSLSVIKLKNKIKYRAEACIKMQKTIRMWLCKRRHKPRIDGLVKVGTLKKRLDKFNEVVSVLKDGKPEMNKQIKNLEISIDTLMAKIKSTMMTQEQIQKEYDALVKSSEELLSALQKKKQQEEEAERLRRIQEEMEKERKRREEDEKRRRKEEEERRMKLEMEAKRKQEEEERKKREDDEKRIQAEVEAQLARQKEEESQQQAVLEQERRDRELALRIAQSEAELISDEAQADLALRRNDGTRPKMTPEQMAKEMSEFLSRGPAVLATKAAAGTKKYDLSKWKYAELRDTINTSCDIELLAACREEFHRRLKVYHAWKSKNKKRNTETEQRAPKSVTDYDFAPFLNNSPQQNPAAQIPARQREIEMNRQQRFFRIPFIRPADQYKDPQSKKKGWWYAHFDGPWIARQMELHPDKPPILLVAGKDDMEMCELNLEETGLTRKRGAEILPRQFEEIWERCGGIQYLQNAIESRQARPTYATAMLQSLLK
partner: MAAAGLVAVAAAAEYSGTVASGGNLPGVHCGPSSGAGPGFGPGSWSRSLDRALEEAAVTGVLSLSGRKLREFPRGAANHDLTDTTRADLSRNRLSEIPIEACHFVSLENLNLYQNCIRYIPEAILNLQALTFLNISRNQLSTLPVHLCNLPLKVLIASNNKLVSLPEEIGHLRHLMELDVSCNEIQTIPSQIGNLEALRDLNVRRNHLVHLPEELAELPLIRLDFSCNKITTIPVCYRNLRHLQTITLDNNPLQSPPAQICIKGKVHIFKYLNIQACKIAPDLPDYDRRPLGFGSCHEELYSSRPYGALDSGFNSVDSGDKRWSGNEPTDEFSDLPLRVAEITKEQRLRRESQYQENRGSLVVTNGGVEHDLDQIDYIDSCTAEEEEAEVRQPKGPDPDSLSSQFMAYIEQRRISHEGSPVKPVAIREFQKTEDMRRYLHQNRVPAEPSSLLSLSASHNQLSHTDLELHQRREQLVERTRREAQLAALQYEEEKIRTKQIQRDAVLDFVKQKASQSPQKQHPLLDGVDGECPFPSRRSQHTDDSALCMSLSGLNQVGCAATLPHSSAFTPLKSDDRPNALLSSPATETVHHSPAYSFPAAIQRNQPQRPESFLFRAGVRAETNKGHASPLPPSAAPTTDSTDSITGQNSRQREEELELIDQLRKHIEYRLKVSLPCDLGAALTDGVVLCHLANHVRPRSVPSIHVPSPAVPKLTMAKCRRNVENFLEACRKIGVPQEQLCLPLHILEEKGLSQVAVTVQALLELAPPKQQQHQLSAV

Variants of: B1
Conditions: with lrch3_human LRCH3, Q96II8

Q: R1107A;R1108A;L1109A was tested. Which “effect of a mutation on the interaction” value did it give?
A: Its value is “disrupting interaction strength”.

Q: For W1192L, which “effect of a mutation on the interaction” value is on record?
A: Its value is “disrupting interaction strength”.
